From patent US20180010135

Test system: phiC31 integrase (Streptomyces phage phiC31?)
Test: cell_activity
Conditions: in E. coli, 1% L-arabinose, 32 C, 60-120 min; intramolecular attB x attP recombination giving minicircle

## phiC31 attB x attP sites flanking expression cassette (pBAD.phiC31.RHB)
  activity (% recombination): > 97
